Measured values: the supplement of paper PMC10065799, “High-throughput profiling of sequence recognition by tyrosine kinases and SH2 domains using bacterial peptide display” (eLife, 2023)

target: FGFR3 (UniProt P22607); test: phosphorylation enrichment, bacterial display (enrichment ratio); higher = better substrate or ligand; peptides without Tyr show the background
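For SH2 binding enrichment of the phosphorylated peptide, bacterial display in this document: peptide library displayed on the E. coli surface as eCPX fusions, selected cells deep-sequenced, score is each peptide's frequency after selection divided by its frequency in the input.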
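For phosphorylation enrichment, bacterial display in this document: 11-residue human phosphosite peptides and single-mutation variants displayed on the E. coli surface, counted by deep sequencing, each peptide's frequency after selection divided by its frequency in the unselected input library; frequency after pTyr selection over input frequency; kinase dosed for 20-30% of maximal phosphorylation in three min.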

Chain of FGFR3 (P22607 whole entry, looked up, the tested form may be a part): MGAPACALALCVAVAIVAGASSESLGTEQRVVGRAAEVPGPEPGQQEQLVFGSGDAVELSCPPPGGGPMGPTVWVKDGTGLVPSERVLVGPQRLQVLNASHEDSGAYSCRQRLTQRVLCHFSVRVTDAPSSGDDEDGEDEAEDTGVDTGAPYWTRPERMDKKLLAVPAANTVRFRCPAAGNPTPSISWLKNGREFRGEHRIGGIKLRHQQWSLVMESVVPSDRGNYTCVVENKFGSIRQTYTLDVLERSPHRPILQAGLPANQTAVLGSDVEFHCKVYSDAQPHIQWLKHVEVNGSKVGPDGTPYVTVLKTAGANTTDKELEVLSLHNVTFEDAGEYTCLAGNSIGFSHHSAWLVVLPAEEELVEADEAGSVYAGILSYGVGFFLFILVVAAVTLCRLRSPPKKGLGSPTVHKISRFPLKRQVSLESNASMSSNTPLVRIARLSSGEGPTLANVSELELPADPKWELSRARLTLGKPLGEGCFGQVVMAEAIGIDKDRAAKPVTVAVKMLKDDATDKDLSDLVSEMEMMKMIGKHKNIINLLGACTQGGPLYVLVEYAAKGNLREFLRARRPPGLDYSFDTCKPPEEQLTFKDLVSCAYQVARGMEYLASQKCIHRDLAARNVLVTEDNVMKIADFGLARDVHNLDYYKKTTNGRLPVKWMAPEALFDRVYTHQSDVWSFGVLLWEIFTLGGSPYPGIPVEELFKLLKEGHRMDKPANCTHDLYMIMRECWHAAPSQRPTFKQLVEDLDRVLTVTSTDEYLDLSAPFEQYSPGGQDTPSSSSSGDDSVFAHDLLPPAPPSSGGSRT

Sequence | phosphorylation enrichment
RWQQLYDTLNA [EIF3M_Y351_Q346R] | 0.848
EFNLMYDGAKE [IRF6_Y97_T100A] | 0.845
WGTAEYDSVVA [MAP1A_Y1883] | 0.817
KMATAYIRSMS [BCO1_Y264_R267S] | 0.369
SLDLSYFPTSS [EMD_Y181_YF] | 0.635
RLNWIYYKDQT [RS1_Y165] | 0.98
PGQAAYQKVVA [HBB_Y131_V127G] | 0.558
SPLTDYSPQLQ [OTC_Y345_L341P] | 0.489
RRGTGYTLPLP [MAGEC3_Y152_S155P] | 0.522
GHLFAYDWISI [BEST1_Y227_YF] | 1.74
AGIVVYNIIGW [MYH7_Y588_D587V] | 0.807
TDLAFYLVRKG [ASL_Y376_YF] | 0.988
PAGSGYPAYLG [ATP6V1A_Y374_D371G] | 0.914
CNTIHYNYMCN [TP53_Y234_T230N] | 0.653
FEEVVYQAMEE [TACC3_Y684] | 0.955
GVRLYYRVMES [RB1_Y454] | 0.711
CGADSYEMEED [EGFR_Y316] | 0.899

Sequence | phosphorylation enrichment
IYETDYYRKGG [INSR_Y1189] | 0.771
EIIPFYGMSSF [FNDC3B_Y175_T179S_YF] | 0.786
LICRRYLVMQR [IL3RA_Y328_V323L] | 0.834
NDTAGYFIIGG [SEL1L3_Y399] | 1.34
TWSPKYTLRSH [STRN3_Y474_N471S] | 0.529
CTTLHYNFMCN [TP53_Y234_I232L_YF] | 0.534
GRQGIYTENER [GPR143_Y231] | 0.62
MFRVQYNSSVD [LRFN1_Y458_Q455R_YF] | 0.597
NVVQEYERVII [NPHS2_Y131_K126N] | 0.668
DGFTDYAEFAK [MCFD2_Y138_I136T_YF] | 0.752
VSYGEYRYRSV [CFTR_Y515_D513G] | 0.469
SGASGYSATST [CERT1_Y143] | 0.446
LPVHFYGHVEH [PYGM_Y204] | 1.66
LLQAEYWHDPI [PPT1_Y185_V181L] | 3.92
AMGPVYQAAAL [HYOU1_Y421_A419P] | 0.435
PVFEVYPLLNC [GATA1_Y78_Q76E] | 1.9

target: SHP2-C SH2; test: SH2 binding enrichment of the phosphorylated peptide, bacterial display (enrichment ratio); higher = better substrate or ligand; peptides without Tyr show the background

Sequence | SH2 binding enrichment
RWQQLYDTLNA [EIF3M_Y351_Q346R] | 0.695
EFNLMYDGAKE [IRF6_Y97_T100A] | 0.684
WGTAEYDSVVA [MAP1A_Y1883] | 0.639
KMATAYIRSMS [BCO1_Y264_R267S] | 0.59
SLDLSYFPTSS [EMD_Y181_YF] | 1.1
RLNWIYYKDQT [RS1_Y165] | 0.801
PGQAAYQKVVA [HBB_Y131_V127G] | 0.615
SPLTDYSPQLQ [OTC_Y345_L341P] | 0.712
RRGTGYTLPLP [MAGEC3_Y152_S155P] | 0.607
GHLFAYDWISI [BEST1_Y227_YF] | 1.16
AGIVVYNIIGW [MYH7_Y588_D587V] | 0.669
TDLAFYLVRKG [ASL_Y376_YF] | 0.662
PAGSGYPAYLG [ATP6V1A_Y374_D371G] | 0.688
CNTIHYNYMCN [TP53_Y234_T230N] | 4.68
FEEVVYQAMEE [TACC3_Y684] | 0.883
GVRLYYRVMES [RB1_Y454] | 0.829
CGADSYEMEED [EGFR_Y316] | 0.652

Sequence | SH2 binding enrichment
IYETDYYRKGG [INSR_Y1189] | 0.621
EIIPFYGMSSF [FNDC3B_Y175_T179S_YF] | 0.592
LICRRYLVMQR [IL3RA_Y328_V323L] | 0.675
NDTAGYFIIGG [SEL1L3_Y399] | 0.812
TWSPKYTLRSH [STRN3_Y474_N471S] | 1.16
CTTLHYNFMCN [TP53_Y234_I232L_YF] | 1.64
GRQGIYTENER [GPR143_Y231] | 0.682
MFRVQYNSSVD [LRFN1_Y458_Q455R_YF] | 0.868
NVVQEYERVII [NPHS2_Y131_K126N] | 0.831
DGFTDYAEFAK [MCFD2_Y138_I136T_YF] | 0.864
VSYGEYRYRSV [CFTR_Y515_D513G] | 0.369
SGASGYSATST [CERT1_Y143] | 0.578
LPVHFYGHVEH [PYGM_Y204] | 1.01
LLQAEYWHDPI [PPT1_Y185_V181L] | 0.803
AMGPVYQAAAL [HYOU1_Y421_A419P] | 0.826
PVFEVYPLLNC [GATA1_Y78_Q76E] | 0.73

target: Grb2 SH2 (UniProt P62993); test: as above
Sequence (P62993 whole entry, looked up): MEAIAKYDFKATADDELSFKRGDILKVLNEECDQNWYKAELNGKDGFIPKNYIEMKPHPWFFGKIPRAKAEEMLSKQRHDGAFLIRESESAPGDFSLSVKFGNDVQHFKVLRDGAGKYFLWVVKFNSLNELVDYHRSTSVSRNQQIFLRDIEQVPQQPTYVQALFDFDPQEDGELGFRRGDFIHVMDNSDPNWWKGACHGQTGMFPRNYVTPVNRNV

Sequence | SH2 binding enrichment
RWQQLYDTLNA [EIF3M_Y351_Q346R] | 0.827
EFNLMYDGAKE [IRF6_Y97_T100A] | 0.965
WGTAEYDSVVA [MAP1A_Y1883] | 0.893
KMATAYIRSMS [BCO1_Y264_R267S] | 1.08
SLDLSYFPTSS [EMD_Y181_YF] | 0.8
RLNWIYYKDQT [RS1_Y165] | 1.11
PGQAAYQKVVA [HBB_Y131_V127G] | 0.984
SPLTDYSPQLQ [OTC_Y345_L341P] | 0.878
RRGTGYTLPLP [MAGEC3_Y152_S155P] | 0.853
GHLFAYDWISI [BEST1_Y227_YF] | 1.36
AGIVVYNIIGW [MYH7_Y588_D587V] | 0.792
TDLAFYLVRKG [ASL_Y376_YF] | 1.07
PAGSGYPAYLG [ATP6V1A_Y374_D371G] | 0.884
CNTIHYNYMCN [TP53_Y234_T230N] | 0.937
FEEVVYQAMEE [TACC3_Y684] | 0.755
GVRLYYRVMES [RB1_Y454] | 0.871
CGADSYEMEED [EGFR_Y316] | 0.825

Sequence | SH2 binding enrichment
IYETDYYRKGG [INSR_Y1189] | 0.863
EIIPFYGMSSF [FNDC3B_Y175_T179S_YF] | 0.652
LICRRYLVMQR [IL3RA_Y328_V323L] | 0.695
NDTAGYFIIGG [SEL1L3_Y399] | 0.693
TWSPKYTLRSH [STRN3_Y474_N471S] | 1.28
CTTLHYNFMCN [TP53_Y234_I232L_YF] | 1.53
GRQGIYTENER [GPR143_Y231] | 0.966
MFRVQYNSSVD [LRFN1_Y458_Q455R_YF] | 0.89
NVVQEYERVII [NPHS2_Y131_K126N] | 0.978
DGFTDYAEFAK [MCFD2_Y138_I136T_YF] | 0.823
VSYGEYRYRSV [CFTR_Y515_D513G] | 0.529
SGASGYSATST [CERT1_Y143] | 0.704
LPVHFYGHVEH [PYGM_Y204] | 1.2
LLQAEYWHDPI [PPT1_Y185_V181L] | 0.805
AMGPVYQAAAL [HYOU1_Y421_A419P] | 0.736
PVFEVYPLLNC [GATA1_Y78_Q76E] | 0.945

target: c-Src SH2; test: as above

Sequence | SH2 binding enrichment
RWQQLYDTLNA [EIF3M_Y351_Q346R] | 0.338
EFNLMYDGAKE [IRF6_Y97_T100A] | 0.626
WGTAEYDSVVA [MAP1A_Y1883] | 1
KMATAYIRSMS [BCO1_Y264_R267S] | 0.464
SLDLSYFPTSS [EMD_Y181_YF] | 0.414
RLNWIYYKDQT [RS1_Y165] | 0.735
PGQAAYQKVVA [HBB_Y131_V127G] | 0.922
SPLTDYSPQLQ [OTC_Y345_L341P] | 0.484
RRGTGYTLPLP [MAGEC3_Y152_S155P] | 0.956
GHLFAYDWISI [BEST1_Y227_YF] | 1.09
AGIVVYNIIGW [MYH7_Y588_D587V] | 0.61
TDLAFYLVRKG [ASL_Y376_YF] | 0.693
PAGSGYPAYLG [ATP6V1A_Y374_D371G] | 0.396
CNTIHYNYMCN [TP53_Y234_T230N] | 6.74
FEEVVYQAMEE [TACC3_Y684] | 0.504
GVRLYYRVMES [RB1_Y454] | 0.973
CGADSYEMEED [EGFR_Y316] | 0.797

Sequence | SH2 binding enrichment
IYETDYYRKGG [INSR_Y1189] | 0.59
EIIPFYGMSSF [FNDC3B_Y175_T179S_YF] | 4.4
LICRRYLVMQR [IL3RA_Y328_V323L] | 0.414
NDTAGYFIIGG [SEL1L3_Y399] | 7.59
TWSPKYTLRSH [STRN3_Y474_N471S] | 1.2
CTTLHYNFMCN [TP53_Y234_I232L_YF] | 2.26
GRQGIYTENER [GPR143_Y231] | 0.607
MFRVQYNSSVD [LRFN1_Y458_Q455R_YF] | 0.572
NVVQEYERVII [NPHS2_Y131_K126N] | 0.557
DGFTDYAEFAK [MCFD2_Y138_I136T_YF] | 0.547
VSYGEYRYRSV [CFTR_Y515_D513G] | 0.451
SGASGYSATST [CERT1_Y143] | 0.486
LPVHFYGHVEH [PYGM_Y204] | 1.48
LLQAEYWHDPI [PPT1_Y185_V181L] | 1.27
AMGPVYQAAAL [HYOU1_Y421_A419P] | 0.528
PVFEVYPLLNC [GATA1_Y78_Q76E] | 0.551
